Here are results for one molecule from publication PMC3323579, “Direct Ubiquitin Independent Recognition and Degradation of a Folded Protein by the Eukaryotic Proteasomes-Origin of Intrinsic Degradation Signals” (PLoS ONE, 2012).

No end group written: not given here. *: point of attachment. Biotin = O=C1N[C@H]2[C@H](CS[C@H]2CCCCC(=O)*)N1

The assay addresses yeast 26S proteasome (RPN11-3XFLAG) (yeast, UniProt P43588 1-306). The assay can be described thus: ELISA; competition: 8 nM apoMb on immobilised 26S proteasome with peptides 100 µM to 0.01 µM; 100 nM MG132 in all incubations; Ki from a one site binding fit. As to conditions: both partners purified. A general note: ELISA stands for enzyme-linked immunosorbent assay.

B1: A-helix peptide of myoglobin (peptide)
chain: Biotin-EWQLVLHVWAKVEAD
B1 showed an inhibitory constant (Ki) of 800 ± 400 nM.

As a reminder, the Ki is a dissociation constant, usually derived from enzyme kinetics or from competition with a known ligand. High values mean lower affinity, low ones higher affinity.
